Values quoted from earlier work in publication PMC12376249.

Target: Histone H1 (Homo sapiens) (UniProt P07305)
Experiment: single-molecule FRET

UniProt P07305, sequence (P07305 2-194): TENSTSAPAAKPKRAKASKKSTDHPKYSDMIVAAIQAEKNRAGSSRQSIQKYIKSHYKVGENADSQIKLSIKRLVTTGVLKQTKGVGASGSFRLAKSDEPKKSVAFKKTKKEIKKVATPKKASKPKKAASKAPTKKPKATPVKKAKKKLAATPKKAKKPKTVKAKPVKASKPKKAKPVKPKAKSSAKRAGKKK

Kd: 0.05 nM
Substance: Prothymosin alpha (from UniProt P06454)
